# Results published in the DeepSol protein solubility set.
# Assay: soluble on expression in E. coli; label from the status in PepcDB or PDB records
row,Sequence,soluble on expression in E. coli
1,KDQIPIILIHGSGGNASSLDKMADQLMNEYRSSNEALTMTVNSEGKIKFEGKLTKDAKRPIIKFGFEQNQATPDDWSKWLKIAMEDLKSRYGFTQMDGVGHSNGGLALTYYAEDYAGDKTVPTLRKLVAIGSPFNDLDPNDNGMDLSFKKLPNSTPQMDYFIKNQTEVSPDLEVLAIAGELSEDNPTDGIVPTISSLATRLFMPGSAKAYIEDIQVGEDAVHQTLHETPKSIEKTYWFLEKFKTDETVIQLDYK,soluble
2,FQDVTNTPVEGMKPYTALQLEGRDIYIREGCVGCHSQMIRPFRAETERYGHYSVAGESVWDHPFLWGSKRTGPDLARVGSRYSDDWHRAHLFNPRNVVPESKMPAYPWLVENKLDGKDIEKKLEVMRTLGVPYTDEDIKGAKDSLKGKTEMDAVVAYLQVLGTSIK,not soluble
3,RAKAFIDAANQYSINELYLISHALLETGNGTSALANGLTYNGKTVYNMYGIGAYDSNPNYYGAKYAYEQGWFTPEAAIIGGAKFIGSSYIHNTAYNQDTLYKMRWSATATHQYATDIGWAYKQVNRMYSLYSLLDG,not soluble
4,MSPVSARFEPAALRPDLARIAGWIEPGSRVLDLGCGDGALLAYLRDHRQVRGAGVEIDDNYVIACVQRGVEVIQQNLEDGLALFDDQQFDTVVLSQTLQSMHRTEHILREMARVARHGVVSFPNFGYWPHGWSILRGRMPVTGQMPYQWYNTPNIHLCTLRDFEDLAGTLGLRILQRATFNEGREVRVFPSWRSTLALYRFAASLEHHHHHH,not soluble
5,MNNQQAAIASARSRMAAGGQPQGATPGQPDQNFDYMFKLLIIGNSSVGKTSFLFRYCDDSFTSAFVSTVGIDFKVKTVFRGDKRVKLQIWDTAGQERYRTITTAYYRGAMGFILMYDITNEESFNSVQDWCTQIKTYSWENAQVVLVGNKCDMDSERVVSMDRGRQLADQLGLEFFETSAKENINVKAVFEKLVEIICDKMAESLDKDPQQQPKGQKLEANPTQKPAQQQCNC,not soluble
6,MIRIENLTKKFDRKVLDNITISLPKNRVSVIVGINGSGKTTLLDCIVGLKDATSGKVFIESYSNDSEKFKECIFYIPSEFYLPNYMTGKEYLNFVLSRYRCSDIERIDDFLELFDLKFAGTNLIESYSFGMKKKIQIVAAALANTDYILGDEIFNGLDFETTLLTLELFENLSREVGIVIISHNKLIIERFSENILLMSNGNLTPFLGASENLEKEVISTEKIHEKIKYIKGYHPINRVIY,not soluble
7,IYQMAGLNEDADRNLWLAAFRDPYGKNNLDIASLKKSIAQWAKTQGKTIAPEKVDAVLKDRTGSAVCLTCGKNGKMKMPLKSLAWIQGSSSYSQAEVIEQTEETNSAEISETRTPEVPDVHTPEAQPHLNTQSDGTPTAYTEPAADSSPQVETPDQAASEPVDVLFSIDVIRQGNLRLGN,not soluble
8,MGSDKIHHHHHHMQQNDKKLFVLDTNVLLHEPLAIYSFKEHDVIIPMTVLEELDSIKDRKRDVSRDARVAIRALEDILGGPTTPEQILKGVALPTREEHSQVSGHLSIFPDHQVEFIIGSLPGDNNDNRIINTALHLQKIHFPRTVVLVTKDINMRLKAKGAGIERVEDYRSDQLIDDVRFLAKGFYQFSGDFWQNVDKVSTERRGLHTVHQVPLEHLGNENFYLNQYLIDDSSDFCGRVVSKTDKHLEMIDRGRDRLLHHEAWGINPKNIYQGMALDALLDPDIELIILTGPAGCGKTLLAMAAALELVVERKLYDKIIVTRNTPEIAESIGFLPGSEEEKMTPWLAAITDTLEVLHKNDVNPAGSVNYIMEKANIQFKSINFMRGRSIQNSVVILDECQNLTASQIKTMITRMGEGTKLICSGNLAQIDSTYLTAVTSGLTYMVERFKDFEGSANIYLNGVVRSRLAEFAEEHL,not soluble
9,MGAAMGPALAVDAAQEAPTADNSPAVEAPQTPEEGEQSAQTSQDNPRYESQIVRAGHSAEAEQVGDVSEDTIFEYSEFDIPEGWFVSVDEDSGKVTVSTPPDAQDGDNYTVKVKAVDLDGNVTWSEVTFTVGDPETDNPEIEPLDADAPEVELPAAE,not soluble
10,MGSDKIHHHHHHMTQPQMIHPGETPEQHAAFQARIARGEKIEPGDWMPAEYRRQLIRMISQHAHSEVVGMLPEGEWITRAPTLKRKTILIAKVQDEAGHGQYLYHAAETLGVTREEMLDALLSGKAKYSSIFNYPSLTWADVGMIGWLVDGAAIKNQTMLAGCSYGPYSRAMVRICSEETFHHKQGKEMIVAYAQGTPEQKQMAQDALNRWWWPALMMLGPHDADSPNTGALVQWGIKLKTNDEVRQEFINEHVPELLEAGLTIPDPDLHQDEQGNWIHGPINWDEFWAVVKGQQGLHRERLGTRQQAHEEGAWVREAVQAYAARQLGQAAD,not soluble
11,GKKQEPYEQVTIDVEEQHQGSVMEALGIRKGEVRDMLPDGKGRVRLEYIIPSRGLIGFRGDFMTMTSGTGLLYSSFSHYDEIKGGEIGQRKNGVLISNATGKALGYALFGLQERGKLMIDANIEVYEGQI,not soluble
12,QCSSEVTARYKATLLKGNSLTDLTGGFGIDCAFLAARFKSATYVERQQELCEIAAHNFPILNLNHINVKNEDGVSYLQAMSPVDCIFLDPARRNEHGGKTVAISDCEPDVAELEELLLNKAEQVMVKLSPM,not soluble
13,MGSDKIHHHHHHMIKVEDKSRCCGCEACVSSCPLQCIELVKDKEGFMYPQVDTARCIDCGKCEKACPELVEAKGSGGVTVYAAVNPDKEARLASSSGGIFTLLAESVLAENGVVFGARFDKDWNVIHDYTETKEGLEAFRGSKYVQSRTGETFKQAEQFLKEGRKVLFSGTPCQIMGLKRYLHKEYDNLLAVDFVCHGVPSPLVWRKYIEETLVRQDEKIQFRPTLNHLFLDEMPLIEGISFRNKCLGWKKYSFALILSKVTTAGEKNTVSLSRIFYDNAYMKAFLANLSLRPACYRCPAKSGKSGSDITLGDFWGIEKIAPELDDDRGCSLLIINNPKVRDELRKKGCLLAEFPISEILPYNLSTAYSVSMPNNRKFFWFMFDKAGFHKALMLATSTTFPIRALRKLFRLI,not soluble
14,MGSDKIHHHHHHMIYFLCSFYGEAEGIISYYKLRKEAVHSSFQIFSSEEIKLIISGTGKINAACAVGYIGSLKSKLSKDLFVNVGICGSRSRTVGECVFINKIKDVDTNKEFYPDILLKHDFEEGNLQTFSIPVTTGQVDDVCDMEGSAFFQSASKFFQKHEIALIKIVSDNANNVNVSGELVRNLIKKSMEKINSYIENYKRIFHEKNFLSDVCTGNIEKIVSRLRLTESQSIQLKKAAVAYKIRNGKEFDFEGFLSLEVKIKNDGRKYFSNLIGSMWK,not soluble
15,RMASVWQRLGFYASLLKRQLNGGPDVIKWERRVIPGCTRSIYSATGKWTKEYTLQTRKDVEKWWHQRIKEQASKISEADKSKPKFYVLSMFPYPSGKLHMGHVRVYTISDTIARFQKMRGMQVINPMGWDAFGLPAENAAVERNLHPQSWTQSNIKHMRKQLDRLGLCFSWDREITTCLPDYYKWTQYLFIKLYEAGLAYQKEALVNWDPVDQTVLANEQVDEHGCSWRSGAKVEQKYLRQWFIKTTAYAKAMQDALADLPEWYGIKGMQAHWIGDCVGCHLDFTLKVHGQATGEKLTAYTATPEAIYGTSHVAISPSHRLLHGHSSLKEALRMALVPGKDCLTPVMAVNMLTQQEVPVVILAKADLEGSLDSKIGIPSTSSEDTILAQTLGLAYSEVIETLPDGTERLSSSAEFTGMTRQDAFLALTQKARGKRVGGDVTSDKLKDWLISRQRYWGTPIPIVHCPVCGPTPVPLEDLPVTLPNIASFTGKGGPPLAMASEWVNCSCPRCKGAAKRETDTMDTFVDSAWYYFRYTDPHNPHSPFNTAVADYWMPVDLYIGGKEHAVMHLFYARFFSHFCHDQKMVKHREPFHKLLAQGLIKGQTFRLPSGQYLQREEVDLTGSVPVHAKTKEKLEVTWEKMSKSKHNGVDPEEVVEQYGIDTIRLYILFAAPPEKDILWDVKTDALPGVLRWQQRLWTLTTRFIEARASGKSPQPQLLSNKEKAEARKLWEYKNSVISQVTTHFTEDFSLNSAISQLMGLSNALSQASQSVILHSPEFEDALCALMVMAAPLAPHVTSEIWAGLALVPRKLCAHYTWDASVLLQAWPAVDPEFLQQPEVVQMAVLINNKACGKIPVPQQVARDQDKVHEFVLQSELGVRLLQGRSIKKSFLSPRTALINFLVQD,soluble
16,MDLTHFQDGRPRMVDVTEKPETFRTATAEAFVELTEEALSALEKGGVGKGDPLVVAQLAGILAAKKTADLIPLCHPLPLTGVEVRVELLKAEKRVRIEATVKTKAETGVEMEAMTACAVAALTVYDMLKAASKGLVISQVRLLHKAGGKSGEWRREQ,soluble
17,MSKISSVLIDLSGTIHIEEFAIPGAQTALELLRQHAKVKFVTNTTKESKRLLHQRLINCGFKVEKEEIFTSLTAARDLIVKNQYRPFFIVDDRAMEDFEGISTDDPNAVVIGLAPEKFNDTTLTHAFRLIKEKKASLIAINKGRYHQTNAGLCLGPGTYVAGLEYSAGVEATIVGKPNKLFFESALQSLNENVDFSSAVMIGDDVNDDALGAIKIGMRAILVKTGKFRDGDELKVKNVANSFVDAVNMIIENKVENG,not soluble
18,MANPIKIGIGGPVGAGKTQLIEKVVKRLSKEMSIGVITNDIYTKEDEKILVNSGVLPESRIIGVETGGCPHTAIREDASMNFAAIDELLERHDDIELIFIESGGDNLAATFSPELVDFSIYIIDVAQGEKIPRKGGQGMIKSDFFVINKTDLAPYVGASLEQMAEDTKVFRGKRPFTFTNLKTDEGLDEVIDWIERDTLLKGLS,not soluble
19,MGSDKIHHHHHHMNDEVSKNISLSDFEPYFKEDYFREDYFYFDNAVNSPETSDRQAGVIWNLLSLGQGSSVLELGCGYGRITNRLAKKGAHVVGLDISPILLKEAETDAAERGVKVEYVLGDMRSLPWRDRFDAAFLWYTTFGYFDDADNERVLREAASSLRKGGRLLIDHPNRIDFLRHKSPVCYVTQRNNDVRIDMFSNDVLSDRSNLERLIVRDGCVRRTHLSFRQYGVSEYVRMLRSAGFETVEAYGQEGEAFTSDSSRLVVVACK,not soluble
20,GRSLGKLGMRYGKKRVHIAKRNLELAFPEKTPEEVQHIVEENFKNTGMALIETGITWFWPTWRFKTLIVEKDIHALKEKGAEGK,not soluble
21,SVYINRMTGLSTFVAPTDDLHTACTKDLTTVAVDVLLGNDAVDAAAAAVSEPLQSLFSEWSNPVFARYPEVAVDVSSGQAESLAVKIHNVLYPYRFTKEMIHSVKVLQQVDNKFIACLMSTRMDEDGRTGGNLLVLVDQHAAHERIRLEQLITDSYEKQDPQSAGRKKLLSSTIIPPLAITVSEEQRRLLRN,soluble
22,MAERAALEELVKLQGERVRGLKQQKASAELIEEEVAKLLKLKAQLGPDESKQKFVLKTPKGTRDYSPRQMAVREKVFDVIIRCFKRHGAEVIDTPVFELKETLMGKYGEDSKLIYDLKDQGGELLSLRYDLTVPFARYLAMNKLTNIKRYHIAKVYRRDNPAMTRGRYREFYQCDFDIAGNFDPMIPDAECLKIMCEILSSLQIGDFLVKVNDRRILDGMFAICGVSDSKFRTICSSVDKLDKVSWEEVKNEMVGEKGLAPEVADRIGDYVQQHGGVSLVEQLLQDPKLSQNKQALEGLGDLKLLFEYLTLFGIDDKISFDLSLARGLDYYTGVIYEAVLLQTPAQAGEEPLGVGSVAAGGRYDGLVGMFDPKGRKVPCVGLSIGVERIFSIVEQRLEALEEKIRTTETQVLVASAQKKLLEERLKLVSELWDAGIKAELLYKKNPKLLNQLQYCEEAGIPLVAIIGEQELKDGVIKLRSVTSREEVDVRREDLVEEIKRRTGQPLCIC,soluble
